# Results published in patent US20210062216.
# T1: Myc:SlRin4-3 (pGWB518, N-terminal Myc tag)
# T1 chain: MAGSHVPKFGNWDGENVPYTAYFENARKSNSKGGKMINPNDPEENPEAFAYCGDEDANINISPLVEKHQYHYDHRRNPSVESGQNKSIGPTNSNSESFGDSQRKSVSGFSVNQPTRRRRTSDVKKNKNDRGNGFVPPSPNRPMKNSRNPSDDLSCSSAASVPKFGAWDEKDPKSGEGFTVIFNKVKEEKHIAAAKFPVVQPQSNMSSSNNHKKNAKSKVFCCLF
# B1: AvrRpt2:Myc (avrRpt2 of Pseudomonas syringae pv. tomato NY15125 in pGWB417, C-terminal Myc tag) (protein)
# chain: MKIAPVAINHSPLSREVPSHAAPTQAKQTNLQSEAGDLDARKSSASSPETRALLATKTVLGRHKIEVPAFGGWFKKKSSKHETGGSSANADSSSVASDSTEKPLFRLTHVPYVSQGNERMGCWYACARMVGHSVEAGPRLGLPELYEGREGPAGLQDFSDVERFIHNEGLTRVDLPDNERFTHEELGALLYKHGPIIFGWKTPNDSWHMSVLTGVDKETSSITFHDPRQGPDLAMPLDYFNQRLAWQVPHAMLYR
# Target: T1, Myc:SlRin4-3 (pGWB518, N-terminal Myc …)
protein,measurement,value
B1,"abundance of Rin4 protein, c-Myc immunoblot of N. benthamiana leaves 28 hr after agroinfiltration",a decrease in the abundance of Rin4 protein
